Measurements: patent US20200017592A1
Substitutions are numbered along the chain they refer to.

B1: human IL-36β (ligand, UniProt Q9NZH7 5-157, looked up)
chain: REAAPKSYAIRDSRQMVWVLSGNSLIAAPLSRSIKPVTLHLIACRDTEFSDKEKGNMVYLGIKGKDLCLFCAEIQGKPTLQLKLQGSQDNIGKDTCWKLVGIHTCINLDVRESCFMGTLDQWGIGVGRKKWKSSFQHHHLRKKDKDFSSMRTN
B2: rhIL-36β/IL-1F8 [aa5-157] (ligand, human, UniProt Q9NZH7 5-157, looked up)
chain: B1 chain
B3: H4H14700P2 (antibody, human IgG4 S228P, kappa, V domains shown)
VH: EVQLVESGGGLVQPGRSLRLSCAASGFTFDDYAMHWVRQTPGKGLEWVSVISWNSDVIAYSDSVKGRFTISRDNAKNSLYLQMNSLGTEDTALYYCAKGHNWNFFDYWGQGTLVTVSS
VL: EIVLTQSPATLSLSPGERATLSCRASQSVSSYLAWYQQKPGQAPRLLIYNVANRATDIPARFSGSGSGTDFTLTISGLEPEDFAVYFCQQRSNWPLTFGGGTKVEIKR
B4: H4H14708P2 (antibody, human IgG4 S228P, kappa, V domains shown)
VH: B3 VH with G10D, T40A, G87R, A97T, N101K, N103S
VL: B3 VL with V29I, Y49F, G77S, F87Y
B5: H4H14709P (antibody, human IgG4 S228P, kappa, V domains shown)
VH: EVQLVESGGGLVQPGGSLRLSCAASGFTFSDYAMSWVRQAPGKGLEWVSGISGNGGDTYYGDFVKGRFTISRDNSKNTLYLQMNSLRGEDTAAYFCVIDLDYWGQGTLVTVSS
VL: DIQMTQSPSTLSASEGDRVTITCRASQSISSWLAWYQQKPGKAPRLLIYKASILGDGVPSRFSGSGSGTEFTLTISSLQPDDFATYYCHQYNSYLWTFGQGTKVEIKR
B6: H4H14728P (antibody, human IgG4 S228P, kappa, V domains shown)
VH: QVQLQESGPGLVKPSQTLSLTCTVSGGSISSADYYWSWIRQHPGKGLEWIGSIYYTGSTYYNPSLKSRLTISIDTSENQFSLKLTSLTAADTAVYYCASEEANWGSHFDSWGQGTLVTVSS
VL: DIQMTQSPSSLSASVGDRVTITCRASQSIDNFLNWYQQKPGKAPKLLIYAASSLQSGVPSRFSGSGSGTDFTLTISSLQPEDFASYYCQHSHSAHPITFGQGTRLEIKR
B7: H4H14731P (antibody, human IgG4 S228P, kappa, V domains shown)
VH: QLQLQESGPGLVKPSETLSLTCTVSGGSISSSNYYWGWIRQPPGKRLEWIGSIYYSGSTYYNPSLKTRVTISVDTSKNQFSLKLTSVTAADTAVYYCAREEAAALTHFDFWGQGTLVTVSS
VL: B6 VL with D30S, F32Y, Y49F, S85T, A94S
B8: H4H14757P (antibody, human IgG4 S228P, kappa, V domains shown)
VH: EVQLVESGGGLVQPGRSLRLSCTASGFTFDDYAMHWVRQAPGKGLEWVSGIRWNGGSIGYVDSVKGRFTISRDNAKKSLHLQMNSLKTEDTALYYCAKDIGDILTGFYGEYGMDVWGQGTTVTVSS
VL: DIQMTQSPSSLSASEGDRVTITCRASQSISSYLNWYQQKAGKAPNLLIYAASSLQSGVPSRFSGSGSGTEYTLTISSLQPEDFATYYCQQSYIIPYTFGQGTKLEIKR
B9: H4H14758P (antibody, human IgG4 S228P, kappa, V domains shown)
VH: EVQLVESGGGLVQPGRSLRLSCAASGFTFDDYAMHWVRQAPGKGLEWVSSVRWNGGIIGYADSVKGRFTISRDNAKNSLYLQMNSLRPEDTALYYCAKDIGDVLTGYYGEYGMDVWGQGTTVTVSS
VL: B8 VL with E15V, T22A, S30T, S31T, A40P, N45K, E70D, Y71F, I94S

Biological target: full-length human IL-36R on cells (human) (UniProt Q9HB29)
Assay: not given

Binder	EC50 (read off the curve) of hIL36β, NFκB-luciferase RLU, in the presence of 0.1 nM REGN6489	EC50 (read off the curve) of hIL36β, NFκB-luciferase RLU, in the presence of 0.3 nM REGN6489	EC50 (read off the curve) of hIL36β, NFκB-luciferase RLU, in the presence of 1 nM REGN6489	EC50 (read off the curve) of hIL36β, NFκB-luciferase RLU, in the presence of 3 nM REGN6489	EC50 (read off the curve) of hIL36β, NFκB-luciferase RLU, in the presence of 9 nM REGN6489	EC50 (read off the curve) of hIL36β, NFκB-luciferase RLU, no antibody
B1	0.005 nM	0.01 nM	0.03 nM	0.1 nM	0.3 nM	0.002 nM

Biological target: full-length human IL-36R on cells (human) (UniProt Q9HB29)
Assay: not given
Remark: another data set of the same source

Binder	EC50 (read off the curve) of hIL36β, NFκB-luciferase RLU, in the presence of 0.3 nM REGN6490	EC50 (read off the curve) of hIL36β, NFκB-luciferase RLU, in the presence of 1 nM REGN6490	EC50 (read off the curve) of hIL36β, NFκB-luciferase RLU, in the presence of 3 nM REGN6490	EC50 (read off the curve) of hIL36β, NFκB-luciferase RLU, in the presence of 9 nM REGN6490	EC50 (read off the curve) of hIL36β, NFκB-luciferase RLU, no antibody
B1	0.008 nM	0.02 nM	0.08 nM	0.3 nM	0.003 nM

Biological target: Macaca fascicularis IL-36R on cells (Macaca fascicularis)
Assay: cell-based or functional assay

Macaca fascicularis IL-36R on cells (Macaca fascicularis), sequence (chain, as listed by the source): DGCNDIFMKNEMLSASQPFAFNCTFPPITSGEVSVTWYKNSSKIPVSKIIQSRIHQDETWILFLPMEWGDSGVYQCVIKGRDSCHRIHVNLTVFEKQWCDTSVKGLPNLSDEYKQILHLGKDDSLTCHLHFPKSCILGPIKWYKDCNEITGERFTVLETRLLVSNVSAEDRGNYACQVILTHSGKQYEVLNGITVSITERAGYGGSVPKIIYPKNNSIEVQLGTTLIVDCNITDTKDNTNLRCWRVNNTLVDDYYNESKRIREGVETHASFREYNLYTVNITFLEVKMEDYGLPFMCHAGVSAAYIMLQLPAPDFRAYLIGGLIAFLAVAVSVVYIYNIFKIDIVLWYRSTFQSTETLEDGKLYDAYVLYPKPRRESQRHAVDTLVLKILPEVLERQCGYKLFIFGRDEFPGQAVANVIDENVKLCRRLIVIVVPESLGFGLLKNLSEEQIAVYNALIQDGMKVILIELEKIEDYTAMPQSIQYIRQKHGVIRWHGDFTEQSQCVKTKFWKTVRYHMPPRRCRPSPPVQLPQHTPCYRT

Binder	EC50, NFκB-luciferase, HEK293/NFκB-luc/MfIL-36R cells
B1	0.27 nM

Biological target: full-length human IL-36R on cells (human) (UniProt Q9HB29)
Assay: cell-based or functional assay

Binder	EC50, NFκB-luciferase, HEK293/NFκB-luc/hIL-36R cells
B1	0.014 nM

Biological target: T1, human IL-36R (IL1RL2) on primary human cells (human) (UniProt Q9HB29)
T1 sequence (looked up): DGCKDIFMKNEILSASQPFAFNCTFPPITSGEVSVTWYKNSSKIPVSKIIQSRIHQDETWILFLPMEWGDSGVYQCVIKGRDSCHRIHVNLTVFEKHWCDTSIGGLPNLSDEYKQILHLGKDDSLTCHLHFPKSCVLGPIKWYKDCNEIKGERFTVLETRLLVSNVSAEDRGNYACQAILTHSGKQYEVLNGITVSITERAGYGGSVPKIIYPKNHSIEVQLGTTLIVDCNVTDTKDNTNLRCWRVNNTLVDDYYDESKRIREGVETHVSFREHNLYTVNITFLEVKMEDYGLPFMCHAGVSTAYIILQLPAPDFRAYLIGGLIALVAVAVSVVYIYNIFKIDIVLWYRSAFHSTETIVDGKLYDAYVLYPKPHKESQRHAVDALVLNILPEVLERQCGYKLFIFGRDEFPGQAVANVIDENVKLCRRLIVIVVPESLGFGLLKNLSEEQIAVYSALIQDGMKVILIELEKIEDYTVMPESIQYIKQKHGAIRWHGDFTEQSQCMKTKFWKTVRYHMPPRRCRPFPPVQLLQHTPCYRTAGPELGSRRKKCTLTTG
Assay: cell-based or functional assay

Binder	EC50[M], IL-8 production, Intestinal MyoFibroblasts (InMyoFib), hIL-36β	EC50[M], IL-8 production, Normal Epidermal Keratinocytes (NHEK), hIL-36β	EC50[M], IL-8 production, PB-derived CD14+ Monocytes, hIL-36β
B2	1.18e-09 M	1.18e-09 M	2.63e-09 M

Biological target: Macaca fascicularis IL-36R extracellular domain expressed with a C-terminal myc-myc-hexahistidine tag (mfIL-36R-MMH) (Macaca fascicularis)
Assay: SPR Biacore 4000, mAb captured on anti-hFc, 37C

Binder	100 nM mfIL-36R-MMH Bound (RU)	Kd	koff	kon	t1/2
B3	67 RU	27.8 nM	0.00198 s⁻¹	71400 M⁻¹ s⁻¹	6 min
B4	75 RU	30.4 nM	0.00181 s⁻¹	59600 M⁻¹ s⁻¹	6 min
B5	66 RU	17.7 nM	0.000871 s⁻¹	49100 M⁻¹ s⁻¹	13 min
B6	77 RU	20.7 nM	0.00134 s⁻¹	64800 M⁻¹ s⁻¹	9 min
B7	41 RU	48.2 nM	0.00322 s⁻¹	66800 M⁻¹ s⁻¹	4 min
B8	4 RU				
B9	-1 RU				

Biological target: Macaca fascicularis IL-36R extracellular domain expressed with a C-terminal myc-myc-hexahistidine tag (Macaca fascicularis)
Assay: SPR (Biacore 4000), mAb captured on anti-human Fc, 25°C

Binder	100 nM mfIL-36R-MMH Bound (RU)	Kd	koff	kon	t½
B3	48 RU	10.6 nM	0.000635 s⁻¹	60200 M⁻¹ s⁻¹	18 min
B4	51 RU	12.9 nM	0.000579 s⁻¹	45000 M⁻¹ s⁻¹	20 min
B5	34 RU	14.3 nM	0.000401 s⁻¹	28000 M⁻¹ s⁻¹	29 min
B6	51 RU	7.87 nM	0.000406 s⁻¹	51500 M⁻¹ s⁻¹	28 min
B7	33 RU	15.9 nM	0.000951 s⁻¹	59800 M⁻¹ s⁻¹	12 min
B8	1 RU				
B9	-1 RU				

Biological target: Macaca fascicularis IL-36R extracellular domain expressed with a C-terminal myc-myc-hexahistidine tag (Macaca fascicularis)
Assay: SPR Biacore T200, mAb captured by anti-hFc, 25C, PBS-T pH 6.0

Binder	100 nM mfIL-36R-MMH Bound (RU)	koff	t½
B3	80 RU	0.00171 s⁻¹	7 min
B4	47 RU	0.0015 s⁻¹	8 min
B5	48 RU	0.00112 s⁻¹	10 min
B6	68 RU	0.000616 s⁻¹	19 min
B7	23 RU	0.00152 s⁻¹	8 min
B8	1 RU		
B9	1 RU		

Biological target: Macaca fascicularis IL-36R extracellular domain expressed with a C-terminal myc-myc-hexahistidine tag (Macaca fascicularis)
Assay: SPR Biacore T200, mAb captured by anti-hFc, 25C, PBS-T pH 7.4

Binder	100 nM mfIL-36R-MMH Bound (RU)	koff	t½
B3	91 RU	0.000821 s⁻¹	14 min
B4	57 RU	0.000752 s⁻¹	15 min
B5	57 RU	0.000519 s⁻¹	22 min
B6	74 RU	0.000544 s⁻¹	21 min
B7	36 RU	0.00137 s⁻¹	8 min
B8	1 RU		
B9	0 RU		

Biological target: Macaca fascicularis IL-36R extracellular domain expressed with a C-terminal myc-myc-hexahistidine tag (Macaca fascicularis)
Assay: SPR Biacore T200, mAb captured by anti-hFc, 37C, PBS-T pH 6.0

Binder	100 nM mfIL-36R-MMH Bound (RU)	koff	t½
B3	97 RU	0.00333 s⁻¹	3 min
B4	58 RU	0.0031 s⁻¹	4 min
B5	80 RU	0.00294 s⁻¹	4 min
B6	91 RU	0.00191 s⁻¹	6 min
B7	40 RU	0.00538 s⁻¹	2 min
B8	-1 RU		
B9	1 RU		

Biological target: Macaca fascicularis IL-36R extracellular domain expressed with a C-terminal myc-myc-hexahistidine tag (Macaca fascicularis)
Assay: SPR Biacore T200, mAb captured by anti-hFc, 37C, PBS-T pH 7.4

Binder	100 nM mfIL-36R-MMH Bound (RU)	koff	t½
B3	108 RU	0.0018 s⁻¹	6 min
B4	66 RU	0.00169 s⁻¹	7 min
B5	92 RU	0.000987 s⁻¹	12 min
B6	98 RU	0.00139 s⁻¹	8 min
B7	43 RU	0.00361 s⁻¹	3 min
B8	0 RU		
B9	0 RU		
